# Results reported in article PMC10786891, “Massively parallel profiling of RNA-targeting CRISPR-Cas13d”.
# Changes are numbered by the printed parent chain. Names and notes keep the numbering of the source.
# T1: EsCas13d, nuclease-dead (Eubacterium siraeum, UniProt B0MS50, R295A;H300A;R849A;H854A)
# T1 sequence: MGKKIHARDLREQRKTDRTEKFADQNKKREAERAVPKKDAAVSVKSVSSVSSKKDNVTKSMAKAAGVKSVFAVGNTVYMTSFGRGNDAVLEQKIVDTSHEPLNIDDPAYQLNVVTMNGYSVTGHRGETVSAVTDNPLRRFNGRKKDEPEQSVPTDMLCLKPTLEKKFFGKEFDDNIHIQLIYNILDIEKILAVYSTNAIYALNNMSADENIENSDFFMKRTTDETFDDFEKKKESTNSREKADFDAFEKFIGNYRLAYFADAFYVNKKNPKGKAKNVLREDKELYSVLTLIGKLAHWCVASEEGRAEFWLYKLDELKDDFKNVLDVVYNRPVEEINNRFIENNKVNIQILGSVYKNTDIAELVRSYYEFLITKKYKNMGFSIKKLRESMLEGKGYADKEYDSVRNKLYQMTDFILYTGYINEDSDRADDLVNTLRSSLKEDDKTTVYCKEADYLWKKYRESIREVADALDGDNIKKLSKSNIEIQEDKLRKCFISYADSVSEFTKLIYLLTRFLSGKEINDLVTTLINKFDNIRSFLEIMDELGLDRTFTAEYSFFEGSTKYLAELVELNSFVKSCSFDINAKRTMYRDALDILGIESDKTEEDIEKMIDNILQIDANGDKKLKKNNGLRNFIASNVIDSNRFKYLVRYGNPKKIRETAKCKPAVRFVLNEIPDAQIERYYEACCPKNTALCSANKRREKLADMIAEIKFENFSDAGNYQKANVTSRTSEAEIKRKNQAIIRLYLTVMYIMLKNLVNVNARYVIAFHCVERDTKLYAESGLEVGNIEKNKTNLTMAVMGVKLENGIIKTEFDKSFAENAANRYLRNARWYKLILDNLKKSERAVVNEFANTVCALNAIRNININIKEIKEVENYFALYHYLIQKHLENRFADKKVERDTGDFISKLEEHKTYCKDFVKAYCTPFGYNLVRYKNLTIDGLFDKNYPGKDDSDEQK
# B1: target 1 insU 3' of 15,insU 3' of 1 (mixed)
# RNA 1: CACCCGUGCAAAAAUGCAGGGGUCUAAAACUGAGCGGAUAACCUCUCUAUGG
# RNA 2: GGGAAUGGAUCCACAUCUACGAAUUCGUACCAUAGAGUAGGUUAUCCGCUCAUCCGAGAUCGGAAGAGCACACGU
# B2: target 1 insU 3' of 20,insA 3' of 3 (mixed)
# RNA 1: B1 RNA 1
# RNA 2: B1 RNA 2 with A34U, G35A, A36G, G37A, U38G, C51A, A52C, U53A
# B3: target 1 U11G,G13A (mixed)
# RNA 1: B1 RNA 1
# RNA 2: GGGAAUGGAUCCACAUCUACGAAUUCGUACCAUAGAGAAGGUAUCCGCUCACCGAGAUCGGAAGAGCACACGU
# B4: target 1 A14U,G15C (mixed)
# RNA 1: B1 RNA 1
# RNA 2: B3 RNA 2 with G37C, A38U, A39G, G41U
# B5: target 1 insU 3' of 22,insA 3' of 3 (mixed)
# RNA 1: B1 RNA 1
# RNA 2: GGGAAUGGAUCCACAUCUACGAAUUCGUACUCAUAGAGAGGUUAUCCGCUACACCGAGAUCGGAAGAGCACACGU
# B6: target 1 insC 3' of 11,insG 3' of 6 (mixed)
# RNA 1: B1 RNA 1
# RNA 2: B1 RNA 2 with U38A, A39G, G41U, U42C, C49G, U50C, C51U, A52C, U53A
# B7: target 1 insC 3' of 11,insU 3' of 4 (mixed)
# RNA 1: B1 RNA 1
# RNA 2: B1 RNA 2 with U38A, A39G, G41U, U42C, C51U, A52C, U53A
# B8: target 1 insU 3' of 13,insU 3' of 5 (mixed)
# RNA 1: B1 RNA 1
# RNA 2: B1 RNA 2 with U38A, A39G, G40U, C49U, U50C, C51U, A52C, U53A
# B9: target 1 del2,del15 (mixed)
# RNA 1: B1 RNA 1
# RNA 2: GGGAAUGGAUCCACAUCUACGAAUUCGUACCAUAGAAGGUUAUCCGCUACCGAGAUCGGAAGAGCACACGU
# B10: target 1 insU 3' of 15,insC 3' of 1 (mixed)
# RNA 1: B1 RNA 1
# RNA 2: B1 RNA 2 with U53C
# B11: target 1 insG 3' of 10,insG 3' of 2 (mixed)
# RNA 1: B1 RNA 1
# RNA 2: B1 RNA 2 with U38A, A39G, G41U, U43G, A52G, U53A
# B12: target 1 U8C,U11C (mixed)
# RNA 1: B1 RNA 1
# RNA 2: B3 RNA 2 with A39G, G41C, U44C
# B13: target 1 U3C,U10A (mixed)
# RNA 1: B1 RNA 1
# RNA 2: B3 RNA 2 with A39G, G41U, U42A, U49C
# B14: target 1 U3C,G13A (mixed)
# RNA 1: B1 RNA 1
# RNA 2: B3 RNA 2 with G41U, U49C
# B15: target 1 insA 3' of 19,insG 3' of 2 (mixed)
# RNA 1: B1 RNA 1
# RNA 2: B1 RNA 2 with G35A, A36G, G37A, U38G, A52G, U53A
# B16: target 1 U10A,U11C (mixed)
# RNA 1: B1 RNA 1
# RNA 2: B3 RNA 2 with A39G, G41C, U42A
# B17: target 1 insA 3' of 6,insU 3' of 2 (mixed)
# RNA 1: B1 RNA 1
# RNA 2: B1 RNA 2 with U38A, A39G, G41U, U43A, A44U, U45C, C47A, A52U, U53A
# B18: target 1 insC 3' of 13,insU 3' of 7 (mixed)
# RNA 1: B1 RNA 1
# RNA 2: GGGAAUGGAUCCACAUCUACGAAUUCGUACCAUAGAGAGCGUUAUCUCGCUCACCGAGAUCGGAAGAGCACACGU
# B19: target 1 insG 3' of 6,insU 3' of 4 (mixed)
# RNA 1: B1 RNA 1
# RNA 2: B18 RNA 2 with C40G, G41U, U43A, A44U, U45C, U47G, C48G, G49C, C50U
# B20: target 1 insU 3' of 15,insA 3' of 2 (mixed)
# RNA 1: B1 RNA 1
# RNA 2: B1 RNA 2 with U53A
# B21: target 1 insU 3' of 15,insG 3' of 1 (mixed)
# RNA 1: B1 RNA 1
# RNA 2: B1 RNA 2 with U53G
# B22: target 1 U8C,A16G (mixed)
# RNA 1: B1 RNA 1
# RNA 2: B3 RNA 2 with A36G, A39G, G41U, U44C
# B23: target 1 U3G,C6G (mixed)
# RNA 1: B1 RNA 1
# RNA 2: B3 RNA 2 with A39G, G41U, C46G, U49G
# B24: target 1 insA 3' of 13,insU 3' of 6 (mixed)
# RNA 1: B1 RNA 1
# RNA 2: B18 RNA 2 with C40A, U47C, C48U
# B25: target 1 insC 3' of 16,insA 3' of 3 (mixed)
# RNA 1: B1 RNA 1
# RNA 2: B1 RNA 2 with G37C, U38G, C51A, A52C, U53A
# B26: target 1 insU 3' of 14,insC 3' of 13 (mixed)
# RNA 1: B1 RNA 1
# RNA 2: B18 RNA 2 with G39U, C40G, G41C, U42G, A44U, U45A, C46U, U47C
# B27: target 1 A9U,C22A (mixed)
# RNA 1: B1 RNA 1
# RNA 2: B3 RNA 2 with C30A, A39G, G41U, A43U
# B28: target 1 U8C,A9G (mixed)
# RNA 1: B1 RNA 1
# RNA 2: B3 RNA 2 with A39G, G41U, A43G, U44C
# B29: target 1 insG 3' of 9,insA 3' of 2 (mixed)
# RNA 1: B1 RNA 1
# RNA 2: B1 RNA 2 with U38A, A39G, G41U, U43A, A44G, U53A
# B30: target 1 insU 3' of 22,insU 3' of 22 (mixed)
# RNA 1: B1 RNA 1
# RNA 2: GGGAAUGGAUCCACAUCUACGAAUUCGUACUUCAUAGAGAGGUUAUCCGCUCACCGAGAUCGGAAGAGCACACGU
# B31: target 1 insC 3' of 11,insC 3' of 8 (mixed)
# RNA 1: B1 RNA 1
# RNA 2: B18 RNA 2 with C40G, G41U, U42C, U47C
# B32: target 1 insC 3' of 13,insA 3' of 8 (mixed)
# RNA 1: B1 RNA 1
# RNA 2: B18 RNA 2 with C46A, U47C
# B33: target 1 U3C,U11A (mixed)
# RNA 1: B1 RNA 1
# RNA 2: B3 RNA 2 with A39G, G41A, U49C
# Molecular target: T1, EsCas13d, nuclease-dead
# Test: crRNA (strand 1, pre-loaded); Mg2+; 40 mM Tris-HCl pH 7.5, 150 mM NaCl, 6 mM MgCl2, 1 mM DTT, 0.1% Tween-20, 0.2 mg/ml BSA; 25 C; 10 min per concentration, then washed
# Conditions: tags: His6-TwinStrep-SUMO cleaved; N-terminal SNAP kept (SNAP-Surface 488); label: 3' end held by stalled T7 RNA polymerase
row,Binder,Kd
1,B1,11.2 ± 0.8 nM
2,B2,11.3 ± 1.1 nM
3,B3,16.6 ± 1.6 nM
4,B4,~80 nM
5,B5,31.5 ± 2.8 nM
6,B6,44 ± 8 nM
7,B7,23.2 ± 1.8 nM
8,B8,22.4 ± 3.3 nM
9,B9,42 ± 7 nM
10,B10,8.8 ± 0.5 nM
11,B11,34.6 ± 3.1 nM
12,B12,12.2 ± 0.6 nM
13,B13,90 ± 40 nM
14,B14,37 ± 8 nM
15,B15,19.5 ± 1.3 nM
16,B16,9.96 ± 0.33 nM
17,B17,21 ± 4 nM

row,Binder,Kd
1,B18,25.7 ± 1.8 nM
2,B19,10.6 ± 0.5 nM
3,B20,10.9 ± 1.1 nM
4,B21,11.6 ± 0.7 nM
5,B22,54 ± 5 nM
6,B23,4.32 ± 0.23 nM
7,B24,4.15 ± 0.3 nM
8,B25,62 ± 10 nM
9,B26,29 ± 5 nM
10,B27,16.9 ± 0.9 nM
11,B28,13.4 ± 0.6 nM
12,B29,21.2 ± 2.5 nM
13,B30,31 ± 8 nM
14,B31,~70 nM
15,B32,16.6 ± 0.6 nM
16,B33,~58 nM
